Test results taken from patent publication US20260226191A1 (SHANDONG SIMCERE BIOPHARMACEUTICAL, published 2026).

How the values were obtained:
[1] = biological target: T1, human MUC17 on endogenous tumor cells (NUGC4, SNU16, ASPC1) (human); test: cell-based or functional assay
[2] = biological target: T2, human MUC17 fragment on FlpinCHO-huMUC17-D1 cells (human); test: FACS on FlpinCHO-huMUC17-D1 cells, MFI
T2 construct: On cells; also called cells overexpressing human MUC17

[3] = biological target: T3, monkey MUC17 on FlpinCHO-cynoMUC17-D1 cells (monkey); test: FACS on FlpinCHO-cynoMUC17-D1 cells, MFI
T3 construct: On cells; also called recombinant cells overexpressing monkey MUC17

[4] = biological target: T4, Human CD3e-His protein (Sino Biological, CAT #10977-H08H) (human, UniProt P07766 23-126); test: ELISA, human CD3e-His coated on the plate, OD450
T4 construct: Bought reagent; also called human CD3e protein
T4 sequence (P07766 23-126 limits assumed): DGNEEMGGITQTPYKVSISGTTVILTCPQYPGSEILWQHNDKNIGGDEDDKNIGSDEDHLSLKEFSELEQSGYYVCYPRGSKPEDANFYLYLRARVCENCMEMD

[5] = biological target: T5, Human MUC17 ECD4131-his (His-tagged human MUC17 protein extracellular region fusion protein) (human, UniProt Q685J3 4131-4393); test: ELISA, human MUC17-his coated on the plate, OD450
T5 construct: also called human MUC17-his protein; Human MUC17-ECD(4131-4393)-His protein

[6] = biological target: T1, human MUC17 on endogenous tumor cells …; test: FACS on NUGC4 cells (endogenous human MUC17), MFI
[7] = biological target: T1, human MUC17 on endogenous tumor cells …; test: FACS on SNU16 cells (endogenous human MUC17), MFI
[8] = biological target: T1, human MUC17 on endogenous tumor cells …; test: FACS on AspC-1 cells (endogenous human MUC17), MFI
[9] = biological target: T6, Cyno MUC17 ECD3577-mFc (mFc-tagged cynomolgus monkey MUC17 protein extracellular region fusion protein) (cynomolgus monkey); test: ELISA, cynomolgus MUC17-mFc coated on the plate, OD450
T6 construct: also called monkey MUC17-mFc protein; Monkey MUC17-ECD3577-mFc protein
T6 chain: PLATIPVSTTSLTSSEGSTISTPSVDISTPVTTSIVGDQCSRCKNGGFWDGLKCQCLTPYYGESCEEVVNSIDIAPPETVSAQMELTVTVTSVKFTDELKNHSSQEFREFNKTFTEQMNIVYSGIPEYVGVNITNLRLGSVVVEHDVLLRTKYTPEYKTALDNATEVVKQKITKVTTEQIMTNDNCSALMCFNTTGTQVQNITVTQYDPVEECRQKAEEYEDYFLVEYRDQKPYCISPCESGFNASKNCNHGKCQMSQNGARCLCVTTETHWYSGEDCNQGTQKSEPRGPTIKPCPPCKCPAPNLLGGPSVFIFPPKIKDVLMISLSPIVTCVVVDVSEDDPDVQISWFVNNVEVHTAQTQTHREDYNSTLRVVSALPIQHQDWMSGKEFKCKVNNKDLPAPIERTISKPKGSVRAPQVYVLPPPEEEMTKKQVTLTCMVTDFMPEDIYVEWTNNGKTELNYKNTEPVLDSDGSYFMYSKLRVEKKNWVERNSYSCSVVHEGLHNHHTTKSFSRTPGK

[10] = biological target: T5, Human MUC17 ECD4131-his (His-tagged …); test: SPR (Biacore 8K), antibody captured on Protein A, antigen injected, 25 C, 1:1 model
[11] = biological target: T6, Cyno MUC17 ECD3577-mFc (mFc-tagged …); test: as above
[12] = biological target: T7, human cell surface CD3 (Jurkat cells, human PBMCs) (human, UniProt P07766 23-207); test: FACS on naive human PBMCs (CD3), MFI
T7 construct: whole, on cells; CD3 is a multi-chain complex on the cell
T7 sequence (P07766 23-207): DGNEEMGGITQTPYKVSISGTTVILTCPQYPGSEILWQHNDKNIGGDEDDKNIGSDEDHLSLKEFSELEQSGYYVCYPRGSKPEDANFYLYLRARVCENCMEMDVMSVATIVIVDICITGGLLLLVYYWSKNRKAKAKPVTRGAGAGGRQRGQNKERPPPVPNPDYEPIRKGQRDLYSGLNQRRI

B1: Bis 57 (bispecific antibody, human IgG1, kappa)
heavy: EVQLVESGGGVVQPGRSLRLSCAASGFTFTDYYMSWVRQAPGKGLEWVAMSRNKAKGHTIEYSSSVKGRFTISRDNSKNTLYLQMNSLRAEDTAVYYCARDTYESYDGYFDVWGQGTTVTVSSASTKGPSVFPLAPSSKSTSGGTAALGCLVKDYFPEPVTVSWNSGALTSGVHTFPAVLQSSGLYSLSSVVTVPSSSLGTQTYICNVNHKPSNTKVDKKVEPKSCDKTHTCPPCPAPEAAGAPSVFLFPPKPKDTLMISRTPEVTCVVVDVSHEDPEVKFNWYVDGVEVHNAKTKPREEQYNSTYRVVSVLTVLHQDWLNGKEYKCKVSNKALPAPIEKTISKAKGQPREPQVYTLPPSREEMTKNQVSLWCLVKGFYPSDIAVEWESNGQPENNYKTTPPVLDSDGSFFLYSKLTVDKSRWQQGNVFSCSVMHEALHNHYTQKSLSLSPG
light: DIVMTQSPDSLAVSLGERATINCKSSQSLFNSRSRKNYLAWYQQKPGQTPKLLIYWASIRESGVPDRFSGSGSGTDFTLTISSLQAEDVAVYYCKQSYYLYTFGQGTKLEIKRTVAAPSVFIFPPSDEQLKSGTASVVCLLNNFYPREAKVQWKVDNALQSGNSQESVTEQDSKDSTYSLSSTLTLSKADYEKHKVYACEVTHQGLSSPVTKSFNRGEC
chain: EVQLVESGGGLVQPGRSLRLSCAASGDITRRCMGWFRQAPGKEREGVAGISEDGITIYADSVKGRFTISKDNAKNSLYLQMNSLRAEDTALYSCAASILNRVGCRQLSYEYIYRGQGTMVTVSSGGGDKTHTCPPCPAPEAAGAPSVFLFPPKPKDTLMISRTPEVTCVVVDVSHEDPEVKFNWYVDGVEVHNAKTKPREEQYNSTYRVVSVLTVLHQDWLNGKEYKCKVSNKALPAPIEKTISKAKGQPREPQVYTLPPSREEMTKNQVSLSCAVKGFYPSDIAVEWESNGQPENNYKTTPPVLDSDGSFFLVSKLTVDKSRWQQGNVFSCSVMHEALHNHYTQKSLSLSPG
notes: Three-chain asymmetric MUC17xCD3 bispecific
B1 was tested, and the “PBMC-mediated in vitro tumor cell killing EC50, ASPC-1” value (“PBMC-mediated … ASPC-1” for short) [1] was 11 pM, the “PBMC-mediated in vitro tumor cell killing EC50, NUGC4” value (from here on “PBMC-mediated … NUGC4”) [1] was 0.024 nM and the “PBMC-mediated in vitro tumor cell killing EC50, SNU16” value [1] was 0.017 nM. For the same binder, the “EC50 (read off the curve)” value [2] was ~2 nM, the “EC50 (read off the curve)” value [3] was ~8 nM and the binding result [4] was “binds”. For the same binder, the “EC50 (read off the curve)” value [5] was ~0.05 nM, the “EC50 (read off the curve)” value [6] was ~1 nM and the “EC50 (read off the curve)” value [7] was ~0.3 nM. For the same binder, the “EC50 (read off the curve)” value [8] was ~0.3 nM, the “EC50 (read off the curve)” value [9] was ~0.04 nM and the Kd [10] was 0.289 nM. For the same binder, the koff [10] was 4.86e-05 s⁻¹, the kon [10] was 168000 M⁻¹ s⁻¹ and the Kd [11] was 4.71 nM. It also gave a koff [11] of 0.00016 s⁻¹ and a kon [11] of 33900 M⁻¹ s⁻¹.

B2: Bis 59 (bispecific antibody, human IgG1, kappa)
heavy: B1 heavy
light: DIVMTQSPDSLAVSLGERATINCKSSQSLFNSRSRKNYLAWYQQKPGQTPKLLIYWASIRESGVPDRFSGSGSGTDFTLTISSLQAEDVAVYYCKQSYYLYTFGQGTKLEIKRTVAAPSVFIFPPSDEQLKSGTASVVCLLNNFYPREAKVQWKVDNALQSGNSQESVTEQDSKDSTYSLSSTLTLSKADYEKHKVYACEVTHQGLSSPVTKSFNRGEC
chain: EVQLVESGGGVVQPGGSLRLSCAASGDTFSRGSWGWFRQAPGKEREAVALISSDGWTFYADSVKGRFTISQDNSKNTLYLQMNSLRAEDTAVYYCAASVLVLRTLNPKAWHHWGQGTMVTVSSGGGDKTHTCPPCPAPEAAGAPSVFLFPPKPKDTLMISRTPEVTCVVVDVSHEDPEVKFNWYVDGVEVHNAKTKPREEQYNSTYRVVSVLTVLHQDWLNGKEYKCKVSNKALPAPIEKTISKAKGQPREPQVYTLPPSREEMTKNQVSLSCAVKGFYPSDIAVEWESNGQPENNYKTTPPVLDSDGSFFLVSKLTVDKSRWQQGNVFSCSVMHEALHNHYTQKSLSLSPG
notes: as for B1
For B2, the “PBMC-mediated … ASPC-1” value [1] was 7.3 pM, the “PBMC-mediated … NUGC4” value [1] was 0.0166 nM and the “PBMC-mediated in vitro tumor cell killing EC50, SNU16” value [1] was 0.0126 nM. The “EC50 (read off the curve)” value [2] was ~1 nM, the binding result [4] was “binds” and the “EC50 (read off the curve)” value [5] was ~0.05 nM. For the same binder, the “EC50 (read off the curve)” value [6] was ~0.6 nM, the “EC50 (read off the curve)” value [7] was ~0.2 nM and the “EC50 (read off the curve)” value [8] was ~0.2 nM. For the same binder, the “EC50 (read off the curve)” value [9] was ~0.2 nM, the Kd [10] was 0.219 nM and the koff [10] was 9.74e-05 s⁻¹. The kon [10] was 445000 M⁻¹ s⁻¹, the Kd [11] was 25.6 nM and the koff [11] was 0.000866 s⁻¹. It also gave a kon [11] of 33900 M⁻¹ s⁻¹.

B3: Bis 58 (bispecific antibody, human IgG1, kappa)
heavy: B1 heavy
light: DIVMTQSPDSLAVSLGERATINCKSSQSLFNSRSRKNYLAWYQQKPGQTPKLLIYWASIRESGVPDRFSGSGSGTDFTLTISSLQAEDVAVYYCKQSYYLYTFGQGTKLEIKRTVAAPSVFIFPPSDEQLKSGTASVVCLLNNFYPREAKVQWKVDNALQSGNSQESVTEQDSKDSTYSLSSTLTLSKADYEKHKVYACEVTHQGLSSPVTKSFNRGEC
chain: EVQLVESGGGLVQPGGSLRLSCAASGFPSSRGTMAWFRQAPGKEREGVAFINSDGRTSYAESVKGRFTISRDNAKNSLYLQMNSLRAEDTAVYYCAASLLYLMTVNAAAYPYWGQGTMVTVSSGGGDKTHTCPPCPAPEAAGAPSVFLFPPKPKDTLMISRTPEVTCVVVDVSHEDPEVKFNWYVDGVEVHNAKTKPREEQYNSTYRVVSVLTVLHQDWLNGKEYKCKVSNKALPAPIEKTISKAKGQPREPQVYTLPPSREEMTKNQVSLSCAVKGFYPSDIAVEWESNGQPENNYKTTPPVLDSDGSFFLVSKLTVDKSRWQQGNVFSCSVMHEALHNHYTQKSLSLSPG
notes: as for B1
With B3 the “PBMC-mediated … ASPC-1” value [1] was 19.4 pM, the “PBMC-mediated … NUGC4” value [1] was 0.0271 nM and the “EC50 (read off the curve)” value [12] was ~50 nM. The “EC50 (read off the curve)” value [2] was ~1 nM, the “EC50 (read off the curve)” value [3] was ~8 nM and the “EC50 (read off the curve)” value [5] was ~0.05 nM. For the same binder, the “EC50 (read off the curve)” value [6] was ~0.5 nM, the “EC50 (read off the curve)” value [7] was ~0.2 nM and the “EC50 (read off the curve)” value [8] was ~0.2 nM. The “EC50 (read off the curve)” value [9] was ~0.07 nM, the Kd [10] was 0.378 nM and the koff [10] was 0.000138 s⁻¹. It also gave a kon [10] of 364000 M⁻¹ s⁻¹, a Kd [11] of 7.11 nM and a koff [11] of 0.00031 s⁻¹. It also gave a kon [11] of 43600 M⁻¹ s⁻¹.

B4: antiFITCx CD3 negative control (bispecific antibody, human IgG1, kappa)
heavy: B1 heavy
light: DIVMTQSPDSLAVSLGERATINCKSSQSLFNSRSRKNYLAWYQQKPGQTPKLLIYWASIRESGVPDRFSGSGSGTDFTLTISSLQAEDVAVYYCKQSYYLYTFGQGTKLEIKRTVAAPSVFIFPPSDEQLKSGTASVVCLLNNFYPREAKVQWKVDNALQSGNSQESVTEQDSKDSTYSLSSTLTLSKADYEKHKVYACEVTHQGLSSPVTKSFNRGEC
chain: EVKLDETGGGLVQPGRPMKLSCVASGFTFSDYWMNWVRQSPEKGLEWVAQIRNKPYNYETYYSDSVKGRFTISRDDSKSSVYLQMNNLRVEDMGIYYCTGSYYGMDYWGQGTSVTVSSGGGGSGGGGSGGGGSDVVMTQTPLSLPVSLGDQASISCRSSQSLVHSNGNTYLRWYLQKPGQSPKVLIYKVSNRFSGVPDRFSGSGSGTDFTLKISRVEAEDLGVYFCSQSTHVPWTFGGGTKLEIKGGGDKTHTCPPCPAPEAAGAPSVFLFPPKPKDTLMISRTPEVTCVVVDVSHEDPEVKFNWYVDGVEVHNAKTKPREEQYNSTYRVVSVLTVLHQDWLNGKEYKCKVSNKALPAPIEKTISKAKGQPREPQVYTLPPSREEMTKNQVSLSCAVKGFYPSDIAVEWESNGQPENNYKTTPPVLDSDGSFFLVSKLTVDKSRWQQGNVFSCSVMHEALHNHYTQKSLSLSPG
notes: Negative control with the same anti-CD3 arm and an anti-FITC scFv in place of the MUC17 VHH
B4: binds [4]; no binding [5].

B5: Bis 92 (bispecific antibody, human IgG1, kappa)
heavy: B1 heavy
light: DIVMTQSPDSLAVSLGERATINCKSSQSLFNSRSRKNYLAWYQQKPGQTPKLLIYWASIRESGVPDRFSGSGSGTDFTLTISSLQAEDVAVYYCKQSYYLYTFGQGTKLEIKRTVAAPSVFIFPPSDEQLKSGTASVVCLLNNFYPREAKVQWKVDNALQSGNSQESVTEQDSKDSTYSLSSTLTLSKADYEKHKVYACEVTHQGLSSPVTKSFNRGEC
chain: EVQLVESGGGVVQPGGSLRLSCAASGYTSNRYSMAWFRQAPGKEREVVAFIWTDGGRTYYADSVKGRFTISRDNSKNTLYLQMNSLRAEDTAVYYCAASSLLLQTINPRAWPYWGQGTMVTVSSGGGDKTHTCPPCPAPEAAGAPSVFLFPPKPKDTLMISRTPEVTCVVVDVSHEDPEVKFNWYVDGVEVHNAKTKPREEQYNSTYRVVSVLTVLHQDWLNGKEYKCKVSNKALPAPIEKTISKAKGQPREPQVYTLPPSREEMTKNQVSLSCAVKGFYPSDIAVEWESNGQPENNYKTTPPVLDSDGSFFLVSKLTVDKSRWQQGNVFSCSVMHEALHNHYTQKSLSLSPG
notes: as for B1
With B5 the “PBMC-mediated … ASPC-1” value [1] was 7.39 pM, the “PBMC-mediated … NUGC4” value [1] was 0.00779 nM and the “EC50 (read off the curve)” value [2] was ~1 nM. For the same binder, the “EC50 (read off the curve)” value [3] was ~20 nM, the binding result [4] was “binds” and the “EC50 (read off the curve)” value [5] was ~0.05 nM. The “EC50 (read off the curve)” value [6] was ~0.2 nM, the “EC50 (read off the curve)” value [7] was ~0.08 nM and the “EC50 (read off the curve)” value [8] was ~0.08 nM. For the same binder, the “EC50 (read off the curve)” value [9] was ~0.09 nM, the Kd [10] was 0.136 nM and the koff [10] was 7.81e-05 s⁻¹. It also gave a kon [10] of 572000 M⁻¹ s⁻¹, a Kd [11] of 13.4 nM and a koff [11] of 0.000511 s⁻¹. For the same binder, the kon [11] was 38100 M⁻¹ s⁻¹.
